# Source: paper PMC2836553
# Like-named read-outs stand apart in the source and are kept apart here.
# T1: XPF-ΔPIP (Δ6 XPF) (Sulfolobus solfataricus, UniProt Q7LXL5 1-227)
# T1 sequence: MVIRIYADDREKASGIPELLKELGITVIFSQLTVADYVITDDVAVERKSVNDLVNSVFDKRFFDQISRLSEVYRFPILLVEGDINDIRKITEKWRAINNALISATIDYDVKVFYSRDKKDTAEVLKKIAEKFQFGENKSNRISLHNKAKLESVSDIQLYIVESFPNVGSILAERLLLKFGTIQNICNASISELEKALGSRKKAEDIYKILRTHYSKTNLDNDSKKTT
# T2: XPF-Δnuc (HhH2 domain) (Sulfolobus solfataricus P2, UniProt Q7LXL5 =M+148-233, internal_change)
# T2 sequence: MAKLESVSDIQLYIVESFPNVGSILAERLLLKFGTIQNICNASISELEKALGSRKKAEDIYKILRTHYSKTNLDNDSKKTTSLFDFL
# T3: XPF-wt (Saccharolobus (Sulfolobus) solfataricus, UniProt Q7LXL5 1-233)
# T3 sequence: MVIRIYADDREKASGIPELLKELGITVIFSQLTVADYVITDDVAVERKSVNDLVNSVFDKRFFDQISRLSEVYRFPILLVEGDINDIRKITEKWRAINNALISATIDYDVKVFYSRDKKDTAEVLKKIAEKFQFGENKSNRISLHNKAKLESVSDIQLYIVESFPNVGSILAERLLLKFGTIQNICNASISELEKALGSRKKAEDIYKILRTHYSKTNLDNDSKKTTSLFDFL
# T4: XPF-Δnuc (HhH2 domain);PCNA heterotrimer (Sulfolobus solfataricus P2;Sulfolobus …, UniProt Q7LXL5;P57766;Q97Z84;P57765 =M+148-233;1-249;1-245;1-244, internal_change|)
# T4 sequence 1: T2 sequence
# T4 sequence 2: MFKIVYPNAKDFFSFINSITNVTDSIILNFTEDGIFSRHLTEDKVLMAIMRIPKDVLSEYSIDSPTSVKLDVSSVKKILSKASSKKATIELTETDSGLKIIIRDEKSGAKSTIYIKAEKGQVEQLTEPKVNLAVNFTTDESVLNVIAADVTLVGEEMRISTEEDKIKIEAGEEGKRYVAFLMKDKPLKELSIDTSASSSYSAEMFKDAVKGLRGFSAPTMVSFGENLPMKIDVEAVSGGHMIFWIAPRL
# T4 sequence 3: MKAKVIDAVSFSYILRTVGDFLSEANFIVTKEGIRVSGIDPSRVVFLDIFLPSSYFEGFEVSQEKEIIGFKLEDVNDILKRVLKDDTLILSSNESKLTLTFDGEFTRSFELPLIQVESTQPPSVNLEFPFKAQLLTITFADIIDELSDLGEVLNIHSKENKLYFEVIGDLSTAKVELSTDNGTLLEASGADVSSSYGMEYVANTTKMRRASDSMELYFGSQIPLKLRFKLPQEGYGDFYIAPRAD
# T4 sequence 4: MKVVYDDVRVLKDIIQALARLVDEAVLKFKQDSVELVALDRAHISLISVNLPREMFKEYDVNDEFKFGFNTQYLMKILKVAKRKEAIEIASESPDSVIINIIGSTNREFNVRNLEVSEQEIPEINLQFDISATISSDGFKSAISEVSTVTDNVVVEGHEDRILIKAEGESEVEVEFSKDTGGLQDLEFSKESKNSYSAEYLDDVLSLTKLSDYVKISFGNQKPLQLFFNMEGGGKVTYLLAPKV
# T5: XPF-wt;PCNA heterotrimer (Saccharolobus (Sulfolobus) …, UniProt Q7LXL5;P57766;Q97Z84;P57765 1-233;1-249;1-245;1-244, |)
# T5 sequence 1: T3 sequence
# T5 sequence 2: T4 sequence 2
# T5 sequence 3: T4 sequence 3
# T5 sequence 4: T4 sequence 4
# B1: 3' flap, three vectors (global fit) (structured_DNA)
# DNA 1: AGCCCGACAGCAGTCAGAGCTTGCTAGGACGGACGGT
# DNA 2: ACCGTCCGTCCTAGCAAGCATTTTTTT
# DNA 3: TCTGACTGCTGTCGGGCT
# modifications: dye positions as in Flap-12, Flap-13 and Flap-23
# B2: Flap-23 (structured_DNA)
# DNA 1: B1 DNA 1
# DNA 2: ACCGTCCGTCCTAGCAAGCATTTTTTT
# DNA 3: TCTGACTGCTGTCGGGCT
# modifications: 3' Cy3 on B strand; internal fluorescein-dT at T10 of C strand
# B3: Flap-13 (structured_DNA)
# DNA 1: B1 DNA 1
# DNA 2: ACCGTCCGTCCTAGCAAGCATTTTTTT
# DNA 3: TCTGACTGCTGTCGGGCT
# modifications: amino-C6-dT at T9 of B strand; internal fluorescein-dT at T10 of C strand
# B4: Flap-12 (structured_DNA)
# DNA 1: B1 DNA 1
# DNA 2: ACCGTCCGTCCTAGCAAGCATTTTTTT
# DNA 3: TCTGACTGCTGTCGGGCT
# modifications: internal fluorescein-dT at T9 of B strand; 3' amino modifier on B strand
# Key:
# Assay in all cases: FRET
# [1] = molecular target: T1, XPF-ΔPIP (Δ6 XPF)
# [2] = molecular target: T2, XPF-Δnuc (HhH2 domain)
# [3] = molecular target: T3, XPF-wt
# [4] = molecular target: T4, XPF-Δnuc (HhH2 domain);PCNA heterotrimer
# [5] = molecular target: T5, XPF-wt;PCNA heterotrimer
# [6] = molecular target: T1, XPF-ΔPIP (Δ6 XPF); remark: listed apart in the source
# [7] = molecular target: T3, XPF-wt; remark: listed apart in the source
# [8] = molecular target: T5, XPF-wt;PCNA heterotrimer; remark: listed apart in the source
# [9] = molecular target: T1, XPF-ΔPIP (Δ6 XPF); remark: listed apart in the source
# [10] = molecular target: T2, XPF-Δnuc (HhH2 domain); remark: listed apart in the source
Binder,Kd [1],Kd [2],Kd [3],Kd [4],Kd [5],Kd [6],Kd [7],Kd [8],Kd [9],Kd [10]
B1,3.1 ± 0.5 µM,8 ± 1 µM,5.3 ± 0.6 µM,110 ± 10 nM,60 ± 10 nM,,,,,
B2,,,,,,1600 ± 200 nM,5 ± 0.6 µM,50 ± 10 nM,1800 ± 300 nM,
B3,,,,,,,9.2 ± 3 µM,60 ± 10 nM,,8 ± 2 µM
B4,,,,,,,2.6 ± 0.4 µM,,1600 ± 600 nM,
